Test results reported in paper PMC5635000, “Structural and mechanistic characterization of an archaeal-like chaperonin from a thermophilic bacterium” (Nature Communications, 2017).
Blank lines part the entries; values can stand above or below the molecule they belong to.

Experiments:
[1] = target: Ch-CPN L439A pivot joint mutant (Carboxydothermus hydrogenoformans) (UniProt Q3AF10); experiment: not stated; L439A subunits purified as hexadecameric chaperonins (Supplementary Fig. 12b)
[2] = target: Group III chaperonin from Carboxydothermus hydrogenoformans (Ch-CPN), wild type (Carboxydothermus hydrogenoformans) (UniProt Q3AF10); experiment: crystal structure; Ch-CPN with 3 mM AMPPNP, closed conformation; batch crystallisation at 22 °C, 20 mM MgCl2, 100 mM HEPES:NaOH pH 7.5; 3.0 Å
[3] = target: T1, Ch-CPN (Carboxydothermus hydrogenoformans, UniProt Q3AF10); experiment: X-ray crystal structure, […] Å; assay type: binding; conditions: open conformation; nucleotide site of equatorial domain; no Mg2+ seen; 3 mM ADP, pH 7.0
T1 construct: gene CHY_0413; full-length wild type, 521 residues; recombinant from E. coli BL21(DE3), no tag mentioned; homo-hexadecamer of two octameric rings; residues 10-502 (5X9V) and 9-502 (5X9U) modelled
T1 sequence (Q3AF10 1-521): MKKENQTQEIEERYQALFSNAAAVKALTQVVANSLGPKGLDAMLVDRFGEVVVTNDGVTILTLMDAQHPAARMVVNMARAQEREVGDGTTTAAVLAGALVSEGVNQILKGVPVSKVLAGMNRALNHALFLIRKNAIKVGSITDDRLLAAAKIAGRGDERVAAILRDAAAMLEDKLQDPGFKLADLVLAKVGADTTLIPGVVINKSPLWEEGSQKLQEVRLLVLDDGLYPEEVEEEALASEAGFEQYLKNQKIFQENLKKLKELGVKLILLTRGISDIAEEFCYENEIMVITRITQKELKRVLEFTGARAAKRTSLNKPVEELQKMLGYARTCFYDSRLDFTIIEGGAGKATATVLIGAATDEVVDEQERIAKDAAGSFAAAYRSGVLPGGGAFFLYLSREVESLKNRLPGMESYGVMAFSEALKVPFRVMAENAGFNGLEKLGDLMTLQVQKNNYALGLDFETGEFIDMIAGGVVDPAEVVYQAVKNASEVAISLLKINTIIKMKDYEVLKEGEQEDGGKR

[4] = target: T1, Ch-CPN; experiment: X-ray crystal structure, […] Å; assay type: binding; conditions: closed conformation; nucleotide site of equatorial domain; Mg2+; 3 mM AMPPNP, pH 7.5

stoichiometry N [1]: 16
Molecule: Ch-CPN L439A pivot joint mutant (from UniProt Q3AF10 1-521) (natural protein)

stoichiometry N [2]: 16
Molecule: Group III chaperonin from Carboxydothermus hydrogenoformans (Ch-CPN), wild type (from UniProt Q3AF10 1-521) (natural protein)

Molecule: Nc1ncnc2c1ncn2[C@@H]1O[C@H](COP(=O)(O)OP(=O)(O)O)[C@@H](O)[C@H]1O [ADP]
X-ray crystal structure, 4.0 Å [3]: The crystal structure of the ADP-bound Ch-CPN shows its fully open conformation

Molecule: Nc1ncnc2c1ncn2[C@@H]1O[C@H](COP(=O)(O)OP(=O)(O)NP(=O)(O)O)[C@@H](O)[C@H]1O [AMPPNP]
X-ray crystal structure, 3.0 Å [4]: crystal structure of Ch-CPN in complex with AMPPNP, an ATP analog, revealed its closed conformation
